Measurements as given in patent publication US20100196347A1, “BONE GRAFTS WITH REDUCED PROTEASE ACTIVITY AND METHODS OF SELECTION AND USE” (priority 2008, published 2010).

What was measured:
[1] = Non-reducing SDS-PAGE of rhPDGF-BB eluted from human FDBA; assay type: physicochemical; details: data not shown
Procedure: (§1) In particular, PDGF (0.5 ml of 0.3 mg/ml) was incubated with the freeze-dried bone graft (˜0.5 ml) and mixed for 10 minutes, 60 minutes, or overnight at room temperature. Then 1 mL of 1 M NaCl was added as described above for FIG. 1. The final NaCl concentration was 667 mM. PDGF was separated from the bone graft by centrifugation at 15,334×g for 2 minutes and the supernatant containing PDGF was analyzed by SEC, RPHPLC, ELISA, and non-reducing SDS-PAGE. […] Released PDGF was measured using a standard ELISA assay. The ELISA assay was performed using Quantikine® Human PDGF-BB Immunoassay from R&D Systems, Inc. according to the manufacturer's protocol (see, for example, world wide web at rndsystems.com/pdf/dbb00.pdf). Briefly, a receptor for human PDGF-BB was coated onto a plate, then PDGF was bound and evaluated with a secondary antibody-HRP conjugate and the chromogen tetramethylbenzidine for detection. […] Alternatively, the concentrations of the rhPDGF-BB in supernatants were determined using the size exclusion HPLC (SEC) on TOSOH Biosep TSK-Gel, 7.8 mm×3 cm HPLC column and TOSOH Biosep TSK-Gel, 6.0 mm×4.0 cm precolumn (Tosoh Bioscience, San Francisco, Calif.) by integration of the elution profile of PDGF and using calibration at 5 different concentrations of standard PDGF as shown in FIG. 4C.

[2] = Binding and release of PDGF from human bone graft (salt elution; ELISA / SEC); assay type: physicochemical
Procedure: FIG. 1 summarizes an exemplary protocol for studying the binding and release of PDGF from bone graft. For some experiments, the amounts were scaled down two or ten times to preserve the bone graft materials. In particular, 100 μl of human bone graft (LifeNet, Inc.) was mixed with 100 μl of PDGF at a concentration of 0.3 mg/mL in 20 mM NaOAc, pH 6.0 for ten minutes. The bone graft consisted of dry particles. The bone graft was freeze-dried before being sold (referred to as freeze-dried bone allograft, or FDBA). Then, 200 μl of NaCl (at various concentrations) in 20 mM NaOAc, pH 6.0 or phosphate buffered saline (PBS) (without NaOAc) was added. The solution was then incubated for either 1 hour or 24 hours. PDGF in solution was separated from insoluble human bone graft by centrifugation at ˜2000×g for 5 minutes at 4° C., and then the amount of rhPDGF-BB released from the matrix was determined by colorimetric ELISA Quantikine assy (R & D Systems, Minneapolis, Minn.) using plates coated with the receptor to human PDGF-BB.
as §1, with “The final NaCl concentration was 667 mM.” left out, “The ELISA assay was performed using Quantikine® Human PDGF-BB Immunoassay from R&D Systems, Inc. according to the manufacturer's protocol (see, for example, world wide web at rndsystems.com/pdf/dbb00.pdf).” left out, “4C. […]” for “4C.”

[3] = PDGF release from washed demineralized bone graft (ELISA); assay type: physicochemical
Procedure: The washes were conducted as follows. The bone graft sample (−0.1 g) was placed in a small plastic tube and then either 1.0 ml of water, saline solution, or elution buffer was added to the sample. The mixture was allowed to sit at room temperature for 5 minutes with occasional gently mixing by hand. At the end of the 5 minutes, the fluid was pulled off the bone graft material using a pipet, and the remaining fluid was removed by compressing the material with a sterile cotton Q-tip applicator. Following this, a solution of 0.3 mg/ml rhPDGF-BB was added to the washed bone graft and samples were removed for quantification of PDGF by ELISA over 60 minutes.

MG-63 cells = experiment: MG-63 cell-based bioassay of rhPDGF eluted from FDBA; details: eluted from FDBA with NaCl after ten minutes; data not shown

In the case of “rhPDGF-BB: recombinant human platelet-derived growth factor BB”, the “electrophoretic comparison with control rhPDGF-BB” value [1] is reported as “electrophoretically indistinguishable”, the “PDGF release from freeze-dried bone graft with other compounds” value ([2]; MEM and acetic acid in place of NaCl) is reported as “release of some PDGF” and the “PDGF released from bone graft by salt incubation” value ([2]; NaCl up to 1.5 M or PBS, 1 hour or 24 hours, ELISA) is reported as “significant amount of PDGF was released”. The “rhPDGF-BB bound to the bone graft matrix recovered from the bone graft” value ([2]; mixture of rhPDGF-BB and bone graft washed with a low ionic strength buffer) was “less than 10%”, the “amount of PDGF released from DM bone graft” value ([3]; bone graft washed 5 minutes in saline) was “More PDGF was released” and the “amount of PDGF released from DM bone graft at the end of the 60 minute study” value ([3]; bone graft washed 5 minutes in sterile water) was “decrease”. The “amount of PDGF released from DM bone graft” value ([3]; bone graft washed in elution buffer) was “somewhere in the middle between water and saline washes” and the “biopotency compared to a control sample of rhPDGF-BB” value (MG-63 cells) was “retained its biopotency”.
